From patent publication US20230242902A1, “A HIGHLY ERROR-PRONE […] R[…] FOR TARGETED CONTINUOUS EVOLUTION IN VIVO” (The Regents of the University of California, priority 2017, published 2023)

tested on: p1; assay: p1 copy number by p1-encoded mKate2 fluorescence; assay type: cell-based, S. cerevisiae; conditions: OR-Y24, measured in triplicate
Procedure, shortened: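 Steps: transform TP-DNAP1 variant into OR-Y24; passage until w.t. p1 displaced; dilute 1:10,000 and grow to saturation in triplicate; measure p1-encoded mKate2 fluorescence; convert to copy number via linear qPCR-based calibration. Four high-copy variants were checked directly by qPCR.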

Molecule | Mean fold-increase over w.t. (p1 copy number) [fold]
I301S: TP-DNAP1 variant (protein) MDYKDKALNDLRNVYADFDSLPLDFRQILIKDRATLLQKEDVEKKILERQEDAKKYAEYLKQSEIPERISLPNIKRHKGVSISFEETSEDMVLEPRPFIFDGLNIRCFRRETIFSLKNKILNMVKESSSFKNVSRQSVSFMYFKIFNKGKVIASTKSVNIYEDKIDERLEDLCNNFDDVLKKIIDVTYGYESLFVSETYSYVIFYAKSIYFPQPRCVNNWGNNIPNILTFDSFKLFTANKNNVSCIKQCSRFLWQKDFNTLEEMIEYKNGNICIVTPQLHINDVRDIKSFNDIRLYSESPSKTFSVIDNTITYLFYFKEHLGVIFNITKSRHDRRVTKFSPLSKFSDVKNITVCFDIESYFDPEKESNQVNIPFICCASIIYNKVIGNIVDFEGRDCVAQMIEYVVDICGELNISSVELIAHNGGGYDFHYILSSMYNPAAIKNILIRNNSFISFNFAHDGVKFSVKDSYSFLLCSLANASKAFLNEETFKKTDFPHHDLKTADDLYKVYKEWSSVNTEINHVVEKEKLLITSEHIVNFTKNDKSKTLIEWSKDYCRNDVLVLSKVWLEFKNAVEDIFNCELVDQTMTLAGLSYKLFQANMPFDVELRHPNKEDYFNMREALIGGRCISVNGIYKDVLCLDVKSLYPASMAFYDQPYGSFKRVSSRPKDELGIYYVRVTPNRNNKSNFFPIRSHNKITYNNFEESTYIAWYTNVDIDIGLSEGHNIEYIPFDSYGNIGYSWSKKGKIFEKYIKDVLYKLKIKYEKQNNKVKRNVIKIIMNSLWGKFAQKWVNFEYFIKSEDDIDFESEEAYKIWDTDFMLIKKIKESTYSSKPIQNGVFTLSWARYHMKSIWDAGAKEGAECIYSDTDSIFVHKEHFKKNAKFMLNGLKVPIIGSEVGQLELECEFDKLLCAGKKQYMGFYTYFQDGKPCIKEKKRFKGIPSNYIIPELYAHLLSGADKEAKIQFLKFRREWGSVKGYIENKTVKAT | 2.29
I301V: TP-DNAP1 variant (protein) MDYKDKALNDLRNVYADFDSLPLDFRQILIKDRATLLQKEDVEKKILERQEDAKKYAEYLKQSEIPERISLPNIKRHKGVSISFEETSEDMVLEPRPFIFDGLNIRCFRRETIFSLKNKILNMVKESSSFKNVSRQSVSFMYFKIFNKGKVIASTKSVNIYEDKIDERLEDLCNNFDDVLKKIIDVTYGYESLFVSETYSYVIFYAKSIYFPQPRCVNNWGNNIPNILTFDSFKLFTANKNNVSCIKQCSRFLWQKDFNTLEEMIEYKNGNICIVTPQLHINDVRDIKSFNDIRLYSESPVKTFSVIDNTITYLFYFKEHLGVIFNITKSRHDRRVTKFSPLSKFSDVKNITVCFDIESYFDPEKESNQVNIPFICCASIIYNKVIGNIVDFEGRDCVAQMIEYVVDICGELNISSVELIAHNGGGYDFHYILSSMYNPAAIKNILIRNNSFISFNFAHDGVKFSVKDSYSFLLCSLANASKAFLNEETFKKTDFPHHDLKTADDLYKVYKEWSSVNTEINHVVEKEKLLITSEHIVNFTKNDKSKTLIEWSKDYCRNDVLVLSKVWLEFKNAVEDIFNCELVDQTMTLAGLSYKLFQANMPFDVELRHPNKEDYFNMREALIGGRCISVNGIYKDVLCLDVKSLYPASMAFYDQPYGSFKRVSSRPKDELGIYYVRVTPNRNNKSNFFPIRSHNKITYNNFEESTYIAWYTNVDIDIGLSEGHNIEYIPFDSYGNIGYSWSKKGKIFEKYIKDVLYKLKIKYEKQNNKVKRNVIKIIMNSLWGKFAQKWVNFEYFIKSEDDIDFESEEAYKIWDTDFMLIKKIKESTYSSKPIQNGVFTLSWARYHMKSIWDAGAKEGAECIYSDTDSIFVHKEHFKKNAKFMLNGLKVPIIGSEVGQLELECEFDKLLCAGKKQYMGFYTYFQDGKPCIKEKKRFKGIPSNYIIPELYAHLLSGADKEAKIQFLKFRREWGSVKGYIENKTVKAT | 2.53
T303L: TP-DNAP1 variant (protein) MDYKDKALNDLRNVYADFDSLPLDFRQILIKDRATLLQKEDVEKKILERQEDAKKYAEYLKQSEIPERISLPNIKRHKGVSISFEETSEDMVLEPRPFIFDGLNIRCFRRETIFSLKNKILNMVKESSSFKNVSRQSVSFMYFKIFNKGKVIASTKSVNIYEDKIDERLEDLCNNFDDVLKKIIDVTYGYESLFVSETYSYVIFYAKSIYFPQPRCVNNWGNNIPNILTFDSFKLFTANKNNVSCIKQCSRFLWQKDFNTLEEMIEYKNGNICIVTPQLHINDVRDIKSFNDIRLYSESPIKLFSVIDNTITYLFYFKEHLGVIFNITKSRHDRRVTKFSPLSKFSDVKNITVCFDIESYFDPEKESNQVNIPFICCASIIYNKVIGNIVDFEGRDCVAQMIEYVVDICGELNISSVELIAHNGGGYDFHYILSSMYNPAAIKNILIRNNSFISFNFAHDGVKFSVKDSYSFLLCSLANASKAFLNEETFKKTDFPHHDLKTADDLYKVYKEWSSVNTEINHVVEKEKLLITSEHIVNFTKNDKSKTLIEWSKDYCRNDVLVLSKVWLEFKNAVEDIFNCELVDQTMTLAGLSYKLFQANMPFDVELRHPNKEDYFNMREALIGGRCISVNGIYKDVLCLDVKSLYPASMAFYDQPYGSFKRVSSRPKDELGIYYVRVTPNRNNKSNFFPIRSHNKITYNNFEESTYIAWYTNVDIDIGLSEGHNIEYIPFDSYGNIGYSWSKKGKIFEKYIKDVLYKLKIKYEKQNNKVKRNVIKIIMNSLWGKFAQKWVNFEYFIKSEDDIDFESEEAYKIWDTDFMLIKKIKESTYSSKPIQNGVFTLSWARYHMKSIWDAGAKEGAECIYSDTDSIFVHKEHFKKNAKFMLNGLKVPIIGSEVGQLELECEFDKLLCAGKKQYMGFYTYFQDGKPCIKEKKRFKGIPSNYIIPELYAHLLSGADKEAKIQFLKFRREWGSVKGYIENKTVKAT | 2.41
K302A: TP-DNAP1 variant (protein) MDYKDKALNDLRNVYADFDSLPLDFRQILIKDRATLLQKEDVEKKILERQEDAKKYAEYLKQSEIPERISLPNIKRHKGVSISFEETSEDMVLEPRPFIFDGLNIRCFRRETIFSLKNKILNMVKESSSFKNVSRQSVSFMYFKIFNKGKVIASTKSVNIYEDKIDERLEDLCNNFDDVLKKIIDVTYGYESLFVSETYSYVIFYAKSIYFPQPRCVNNWGNNIPNILTFDSFKLFTANKNNVSCIKQCSRFLWQKDFNTLEEMIEYKNGNICIVTPQLHINDVRDIKSFNDIRLYSESPIATFSVIDNTITYLFYFKEHLGVIFNITKSRHDRRVTKFSPLSKFSDVKNITVCFDIESYFDPEKESNQVNIPFICCASIIYNKVIGNIVDFEGRDCVAQMIEYVVDICGELNISSVELIAHNGGGYDFHYILSSMYNPAAIKNILIRNNSFISFNFAHDGVKFSVKDSYSFLLCSLANASKAFLNEETFKKTDFPHHDLKTADDLYKVYKEWSSVNTEINHVVEKEKLLITSEHIVNFTKNDKSKTLIEWSKDYCRNDVLVLSKVWLEFKNAVEDIFNCELVDQTMTLAGLSYKLFQANMPFDVELRHPNKEDYFNMREALIGGRCISVNGIYKDVLCLDVKSLYPASMAFYDQPYGSFKRVSSRPKDELGIYYVRVTPNRNNKSNFFPIRSHNKITYNNFEESTYIAWYTNVDIDIGLSEGHNIEYIPFDSYGNIGYSWSKKGKIFEKYIKDVLYKLKIKYEKQNNKVKRNVIKIIMNSLWGKFAQKWVNFEYFIKSEDDIDFESEEAYKIWDTDFMLIKKIKESTYSSKPIQNGVFTLSWARYHMKSIWDAGAKEGAECIYSDTDSIFVHKEHFKKNAKFMLNGLKVPIIGSEVGQLELECEFDKLLCAGKKQYMGFYTYFQDGKPCIKEKKRFKGIPSNYIIPELYAHLLSGADKEAKIQFLKFRREWGSVKGYIENKTVKAT | 1.88
I301Y: TP-DNAP1 variant (protein) MDYKDKALNDLRNVYADFDSLPLDFRQILIKDRATLLQKEDVEKKILERQEDAKKYAEYLKQSEIPERISLPNIKRHKGVSISFEETSEDMVLEPRPFIFDGLNIRCFRRETIFSLKNKILNMVKESSSFKNVSRQSVSFMYFKIFNKGKVIASTKSVNIYEDKIDERLEDLCNNFDDVLKKIIDVTYGYESLFVSETYSYVIFYAKSIYFPQPRCVNNWGNNIPNILTFDSFKLFTANKNNVSCIKQCSRFLWQKDFNTLEEMIEYKNGNICIVTPQLHINDVRDIKSFNDIRLYSESPYKTFSVIDNTITYLFYFKEHLGVIFNITKSRHDRRVTKFSPLSKFSDVKNITVCFDIESYFDPEKESNQVNIPFICCASIIYNKVIGNIVDFEGRDCVAQMIEYVVDICGELNISSVELIAHNGGGYDFHYILSSMYNPAAIKNILIRNNSFISFNFAHDGVKFSVKDSYSFLLCSLANASKAFLNEETFKKTDFPHHDLKTADDLYKVYKEWSSVNTEINHVVEKEKLLITSEHIVNFTKNDKSKTLIEWSKDYCRNDVLVLSKVWLEFKNAVEDIFNCELVDQTMTLAGLSYKLFQANMPFDVELRHPNKEDYFNMREALIGGRCISVNGIYKDVLCLDVKSLYPASMAFYDQPYGSFKRVSSRPKDELGIYYVRVTPNRNNKSNFFPIRSHNKITYNNFEESTYIAWYTNVDIDIGLSEGHNIEYIPFDSYGNIGYSWSKKGKIFEKYIKDVLYKLKIKYEKQNNKVKRNVIKIIMNSLWGKFAQKWVNFEYFIKSEDDIDFESEEAYKIWDTDFMLIKKIKESTYSSKPIQNGVFTLSWARYHMKSIWDAGAKEGAECIYSDTDSIFVHKEHFKKNAKFMLNGLKVPIIGSEVGQLELECEFDKLLCAGKKQYMGFYTYFQDGKPCIKEKKRFKGIPSNYIIPELYAHLLSGADKEAKIQFLKFRREWGSVKGYIENKTVKAT | 3.28
T303H: TP-DNAP1 variant (protein, listed as Kluyveromyces lactis) MDYKDKALNDLRNVYADFDSLPLDFRQILIKDRATLLQKEDVEKKILERQEDAKKYAEYLKQSEIPERISLPNIKRHKGVSISFEETSEDMVLEPRPFIFDGLNIRCFRRETIFSLKNKILNMVKESSSFKNVSRQSVSFMYFKIFNKGKVIASTKSVNIYEDKIDERLEDLCNNFDDVLKKIIDVTYGYESLFVSETYSYVIFYAKSIYFPQPRCVNNWGNNIPNILTFDSFKLFTANKNNVSCIKQCSRFLWQKDFNTLEEMIEYKNGNICIVTPQLHINDVRDIKSFNDIRLYSESPIKHFSVIDNTITYLFYFKEHLGVIFNITKSRHDRRVTKFSPLSKFSDVKNITVCFDIESYFDPEKESNQVNIPFICCASIIYNKVIGNIVDFEGRDCVAQMIEYVVDICGELNISSVELIAHNGGGYDFHYILSSMYNPAAIKNILIRNNSFISFNFAHDGVKFSVKDSYSFLLCSLANASKAFLNEETFKKTDFPHHDLKTADDLYKVYKEWSSVNTEINHVVEKEKLLITSEHIVNFTKNDKSKTLIEWSKDYCRNDVLVLSKVWLEFKNAVEDIFNCELVDQTMTLAGLSYKLFQANMPFDVELRHPNKEDYFNMREALIGGRCISVNGIYKDVLCLDVKSLYPASMAFYDQPYGSFKRVSSRPKDELGIYYVRVTPNRNNKSNFFPIRSHNKITYNNFEESTYIAWYTNVDIDIGLSEGHNIEYIPFDSYGNIGYSWSKKGKIFEKYIKDVLYKLKIKYEKQNNKVKRNVIKIIMNSLWGKFAQKWVNFEYFIKSEDDIDFESEEAYKIWDTDFMLIKKIKESTYSSKPIQNGVFTLSWARYHMKSIWDAGAKEGAECIYSDTDSIFVHKEHFKKNAKFMLNGLKVPIIGSEVGQLELECEFDKLLCAGKKQYMGFYTYFQDGKPCIKEKKRFKGIPSNYIIPELYAHLLSGADKEAKIQFLKFRREWGSVKGYIENKTVKAT | 2.3
